Target: RQR8
Test: cell-based or functional assay

Sequence of RQR8 (chain, as listed by the source limits assumed): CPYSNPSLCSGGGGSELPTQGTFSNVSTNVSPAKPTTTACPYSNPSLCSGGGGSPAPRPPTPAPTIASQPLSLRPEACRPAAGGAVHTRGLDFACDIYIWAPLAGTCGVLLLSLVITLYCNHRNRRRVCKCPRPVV

rituximab (antibody)
complement-dependent cytotoxicity (CDC): CAR+ cells eliminated, RTX 100 µg/ml with baby rabbit complement, 2 hours: 85%
